We go through 12 molecules from patent US20240376207A1 (JIANGSU HENGRUI PHARMACEUTICALS, published 2024).

As usually defined, the EC50 is the concentration that produces a half-maximal response.

For experiment [1], the target named is T1, cynomolgus monkey PVRIG expressed on cells (cynomolgus monkey, UniProt A0A2K5WVV8 1-322).
T1 construct: whole, on cells; also called Monkey PVRIG FACS; cells overexpressing cynomolgus monkey PVRIG
T1 sequence: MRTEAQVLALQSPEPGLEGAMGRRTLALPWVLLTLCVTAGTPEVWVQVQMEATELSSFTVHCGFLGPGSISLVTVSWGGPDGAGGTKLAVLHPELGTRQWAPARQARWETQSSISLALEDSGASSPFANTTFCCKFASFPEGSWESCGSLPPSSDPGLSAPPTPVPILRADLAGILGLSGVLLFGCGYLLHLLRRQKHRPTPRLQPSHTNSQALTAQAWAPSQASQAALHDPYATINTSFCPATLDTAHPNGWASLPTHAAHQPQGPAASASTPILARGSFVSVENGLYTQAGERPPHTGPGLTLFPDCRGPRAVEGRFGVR
The experiment in a line: FACS, HEK293 cells overexpressing target. The procedure:
(§1) The expression plasmid carrying human or cynomolgus monkey PVRIG gene sequence was transfected into HEK293 cells, and the over-expressing stable transfection monoclonal cell strain was obtained by antibiotic screening and infinite dilution. Overexpressing cells were seeded into a 96-well plate at 2×10⁵ cells/per well. The cells were centrifuged at 300 g for 5 min, the supernatant was then removed, 100 μL of the test antibody was added, and the mixture was incubated at 4° C. for 1 h. The mixture was centrifuged, the supernatant was removed, the plate was washed 3 times with 200 μL of wash buffer (PBS+2% FBS), and then 100 μL of an anti-human IgG secondary antibody (Invitrogen, A-11013) labeled with Alexa Fluor 488 diluted at 1:500 was added. The mixture was incubated at 4° C. for 1 h. The plate was centrifuged, and the supernatant was removed. The plate was washed 3 times with 200 μL of wash buffer (PBS+2% FBS). The cells were resuspended in 100 μL of PBS and tested on a flow cytometer (BD FACS Calibur or BD FACS Canto_II).
(§2) Binding of the humanized anti-PVRIG antibodies to human or cynomolgus monkey PVRIG was detected by using a flow cytometer according to the method of Example 5.
(In general: Flow cytometry measures light scatter and fluorescence of single cells or particles in a stream.)

In experiment [2] the target is T2, human PVRIG expressed on cells (human, UniProt Q6DKI7 41-326).
T2 construct: whole, on cells; also called Human PVRIG FACS; cells overexpressing human PVRIG
T2 sequence (looked up): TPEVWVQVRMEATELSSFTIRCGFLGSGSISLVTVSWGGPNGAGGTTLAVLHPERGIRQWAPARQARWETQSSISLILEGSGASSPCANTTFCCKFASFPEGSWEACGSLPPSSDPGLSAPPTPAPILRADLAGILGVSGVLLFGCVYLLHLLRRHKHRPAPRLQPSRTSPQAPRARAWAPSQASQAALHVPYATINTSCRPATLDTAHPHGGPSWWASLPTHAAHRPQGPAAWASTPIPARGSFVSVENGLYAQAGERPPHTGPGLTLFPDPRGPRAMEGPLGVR
Description: FACS, HEK293 cells overexpressing target. The protocol:
as §1, §2

B1: humanized anti-PVRIG antibody 20H4 (antibody, human IgG4 S228P, F234A L235A, V domains shown)
VH: EVQLVESGGGLVQPGGSLRLSCAASGYTSRTDCMGWFRQAPGKGLEGVAHIDSDGIPRYVDSVKGRFTISQDHAKNSLYLQMNSLRAEDTAVYYCVVGFKFDEDYCAPNDWGQGTMVTVSS
As for B1, the EC50 in experiment [1] turned out to be 591 pM; in experiment [2], 8 pM.

B2: humanized anti-PVRIG antibody 20H1 (antibody, human IgG4 S228P, F234A L235A, V domains shown)
VH: EVQLVESGGGLVQPGGSLRLSCAASGFTFSTDCMGWFRQAPGKGLEGVAHIDSDGIPRYVDSVKGRFTISRDNAKNSLYLQMNSLRAEDTAVYYCVVGFKFDEDYCAPNDWGQGTMVTVSS
Consider B2, for which the concentration for a half-maximal effect (EC50) was found to be 658 pM in experiment [1] and 19 pM in experiment [2].

B3: humanized anti-PVRIG antibody 20H2 (antibody, human IgG4 S228P, F234A L235A, V domains shown)
VH: EVQLVESGGGLVQPGGSLRLSCAASGFTSRTDCMGWFRQAPGKGLEGVAHIDSDGIPRYVDSVKGRFTISRDNAKNSLYLQMNSLRAEDTAVYYCVVGFKFDEDYCAPNDWGQGTMVTVSS
On to B3, for which the figures for the EC50 in experiment [1] and in experiment [2] were 338 pM and 6 pM, respectively.

B4: humanized anti-PVRIG antibody 20H3 (antibody, human IgG4 S228P, F234A L235A, V domains shown)
VH: EVQLVESGGGLVQPGGSLRLSCAASGYTFSTDCMGWFRQAPGKGLEGVAHIDSDGIPRYVDSVKGRFTISQDHAKNSLYLQMNSLRAEDTAVYYCVVGFKFDEDYCAPNDWGQGTMVTVSS
In the case of B4, the EC50 in experiment [1] was 1500 pM; in experiment [2], 6 pM.

B5: humanized anti-PVRIG antibody 38H9 (antibody, human IgG4 S228P, F234A L235A, V domains shown)
VH: EVQLVESGGGVVQPGGSLRLSCAASPSTYGPSDMAWFRQAPGKGLEGVATISAAGRLTYYTDSVRGRFTISRDNSKNTMYLQMNSLRAEDTAVYYCAADFAGGSSLFADYKYWGQGTMVTVSS
B5 gave an EC50 in experiment [2] of 68 pM.

B6: humanized anti-PVRIG antibody 38H7 (antibody, human IgG4 S228P, F234A L235A, V domains shown)
VH: EVQLVESGGGVVQPGGSLRLSCAASPSTYGPSDMAWFRQAPGKQREGVATISAAGRLTYYTDSVRGRFTISRDNSKNTMYLQMNSLRAEDTAVYYCAADFAGGSSLFADYKYWGQGTMVTVSS
In the case of B6, the EC50 was 49 pM in experiment [1] and 40 pM in experiment [2].

B7: humanized anti-PVRIG antibody 38H4 (antibody, human IgG4 S228P, F234A L235A, V domains shown)
VH: EVQLVESGGGVVQPGGSLRLSCAASPFTYGPSDMAWFRQAPGKGLEGVATISAAGRLTYYTDSVRGRFTISRDNSKNTLYLQMNSLRAEDTAVYYCAADFAGGSSLFADYKYWGQGTMVTVSS
On to B7, for which the concentration for a half-maximal effect (EC50) in experiment [1] turned out to be 95 pM; in experiment [2] it was 62 pM.

B8: humanized anti-PVRIG antibody 38H8 (antibody, human IgG4 S228P, F234A L235A, V domains shown)
VH: EVQLVESGGGVVQPGGSLRLSCAASPSTYGPSDMAWFRQAPGKGLEGVATISAAGRLTYYTDSVRGRFTISRDNSKNTLYLQMNSLRAEDTAVYYCAADFAGGSSLFADYKYWGQGTMVTVSS
As to B8, the EC50 in experiment [2] was determined as 65 pM.

B9: humanized anti-PVRIG antibody 30H1 (antibody, human IgG4 S228P, F234A L235A, V domains shown)
VH: EVQLVESGGGLVQPGGSLRLSCAASGFTFSGDCMGWFRQAPGKGLEGVATIDNAGRIKYADSVKGRFTISRDNAKNSLYLQMNSLRAEDTAVYYCAAGWTFGGQCSPADWGQGTQVTVSS
Regarding B9, the figures for the EC50 in experiment [1] and in experiment [2] were 374 pM and 24 pM, respectively.

B10: humanized anti-PVRIG antibody 151H9 (antibody, human IgG4 S228P, F234A L235A, V domains shown)
VH: HVQLVESGGGLVQPGGSLRLSCVASASGFTYRPYCMAWFRQAPGKGLEAVAGIDIFGGTTYADSVKGRFTASRDNAGFSLYLQMNSLRAEDTAVYYCAAGDSPDGRCPPLGQGLNYWGQGTMVTVSS
B10: the figures for the EC50 in experiment [1] and in experiment [2] were 3940 pM and 4 pM, respectively.

B11: humanized anti-PVRIG antibody 39H3 (antibody, human IgG4 S228P, F234A L235A, V domains shown)
VH: EVQLVESGGGLVQPGGSLRLSCAASGYTFSTDCMGWFRQAPGKGLEGVAHIDSDGIPRYVESVKGRFTISQDHAKNSLYLQMNSLRAEDTAVYYCVVGFKFGDYCAPNDWGQGTMVTVSS
B11: the concentration for a half-maximal effect (EC50) in experiment [1] amounted to 348 pM; in experiment [2], 5 pM.

B12: humanized anti-PVRIG antibody 39H5 (antibody, human IgG4 S228P, F234A L235A, V domains shown)
VH: EVQLVESGGGLVQPGGSLRLSCAASGYTSRTDCMGWFRQAPGKEREGVAHIDSDGIPRYVESVKGRFTISQDHAKNSLYLQMNSLRAEDTAVYYCVVGFKFGDYCAPNDWGQGTMVTVSS
Take B12: the values for the EC50 in experiment [1] and in experiment [2] were 208 pM and 6 pM, respectively.
